{
  "source": "the supplement of paper PMC7877785",
  "assay": "self-splicing fitness, log relative to wild type (ln ratio); higher = more splicing; Tetrahymena group I intron in knt gene, E. coli kanamycin selection, DiMSum; sequences stand for … in CUCUCU…GGAGGGAAAAGUUAUCAGGCAUGCACCUGGUAGCUAGUCUUUAAACCAAUAGAUUGCAUCGGUUUAAAAGGCAAGACCGUCAAAUUGCGGGAAAGGGGUCAACAGCCGUUCAGUACCAAGUCUCAGGGGAAACUUUGAGAUGGCCUUGCAAAGGGUAUGGUAAUAAGCUGACGGACAUGGUCCUAACCACGCAGCCAAGUCCUAAGUCAACAGAUCUUCUGUUGAUAUGGAUGCAGUUCACAGACUAAAUGUCGGUCGGGGAAGAUGUAUUCUUCUCAUAAGAUAUAGUCGGACCUCUCCUUAAUGGGAGCUAGCGGAUGAAGUGAUGCAACACUGGAGCCGCUGGGAACUAAUUUGUAUGCGAAAGUAUAUUGAUUAGUUUUGGAGUACUCGUGGUCG",
  "how_it_was_run": "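Fitness was computed with DiMSum as the error-weighted combination of replicate fold changes, kanamycin versus none, each normalised to wild type. The library randomised all eight intron nucleotides of the P1ex region, with the intron placed in the knt kanamycin-resistance gene on pET-22b(+) in E. coli BL21(DE3). Six replicate transformations were grown overnight at 37°C or 30°C on LB agar with or without 25 μg/mL kanamycin, plus 100 μg/mL carbenicillin, 50 μM IPTG and 0.2% rhamnose. Pooled colonies were amplicon-sequenced on an Illumina HiSeq 2500.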",
  "note": "± gives the uncertainty stated by the source.",
  "data": [
    {"sequence": "GCUGAGCAAUAUUACGAGUG", "values": [
      {"measurement": "self-splicing fitness (ln)", "setting": "30 °C", "value": "-0.948 ± 0.14"},
      {"measurement": "self-splicing fitness (ln)", "setting": "37 °C", "value": "-1.2 ± 0.17"}
    ]},
    {"sequence": "GCUAAGCAAUAUUACGACCA", "values": [
      {"measurement": "self-splicing fitness (ln)", "setting": "30 °C", "value": "-2.09 ± 0.21"},
      {"measurement": "self-splicing fitness (ln)", "setting": "37 °C", "value": "-1.34 ± 0.26"}
    ]},
    {"sequence": "AUGUAGCAAUAUUACGGGAA", "values": [
      {"measurement": "self-splicing fitness (ln)", "setting": "30 °C", "value": "-2.34 ± 0.38"},
      {"measurement": "self-splicing fitness (ln)", "setting": "37 °C", "value": "-3.07 ± 0.47"}
    ]},
    {"sequence": "AAGCAGCAAUAUUACGUGAU", "values": [
      {"measurement": "self-splicing fitness (ln)", "setting": "30 °C", "value": "-2.39 ± 0.081"},
      {"measurement": "self-splicing fitness (ln)", "setting": "37 °C", "value": "-1.49 ± 0.11"}
    ]},
    {"sequence": "UUGAAGCAAUAUUACGCUUG", "values": [
      {"measurement": "self-splicing fitness (ln)", "setting": "30 °C", "value": "-1.02 ± 0.064"},
      {"measurement": "self-splicing fitness (ln)", "setting": "37 °C", "value": "-0.679 ± 0.087"}
    ]},
    {"sequence": "UCCAAGCAAUAUUACGGCUU", "values": [
      {"measurement": "self-splicing fitness (ln)", "setting": "30 °C", "value": "-3.94 ± 0.4"},
      {"measurement": "self-splicing fitness (ln)", "setting": "37 °C", "value": "-1.53 ± 0.25"}
    ]},
    {"sequence": "CGCCAGCAAUAUUACGUACG", "values": [
      {"measurement": "self-splicing fitness (ln)", "setting": "30 °C", "value": "-1.6 ± 0.098"},
      {"measurement": "self-splicing fitness (ln)", "setting": "37 °C", "value": "-0.916 ± 0.12"}
    ]},
    {"sequence": "UAACAGCAAUAUUACGAGGG", "values": [
      {"measurement": "self-splicing fitness (ln)", "setting": "30 °C", "value": "-3.58 ± 0.2"},
      {"measurement": "self-splicing fitness (ln)", "setting": "37 °C", "value": "-3.12 ± 0.22"}
    ]},
    {"sequence": "UUCCAGCAAUAUUACGUCGG", "values": [
      {"measurement": "self-splicing fitness (ln)", "setting": "30 °C", "value": "-3.28 ± 0.23"},
      {"measurement": "self-splicing fitness (ln)", "setting": "37 °C", "value": "-3.13 ± 0.4"}
    ]},
    {"sequence": "AGUCAGCAAUAUUACGAUGU", "values": [
      {"measurement": "self-splicing fitness (ln)", "setting": "30 °C", "value": "0.202 ± 0.062"},
      {"measurement": "self-splicing fitness (ln)", "setting": "37 °C", "value": "0.34 ± 0.087"}
    ]},
    {"sequence": "GAUAAGCAAUAUUACGCUGG", "values": [
      {"measurement": "self-splicing fitness (ln)", "setting": "30 °C", "value": "-2.66 ± 0.14"},
      {"measurement": "self-splicing fitness (ln)", "setting": "37 °C", "value": "-2.04 ± 0.2"}
    ]},
    {"sequence": "GUGGAGCAAUAUUACGGCGC", "values": [
      {"measurement": "self-splicing fitness (ln)", "setting": "30 °C", "value": "-1.42 ± 0.27"},
      {"measurement": "self-splicing fitness (ln)", "setting": "37 °C", "value": "-0.0496 ± 0.26"}
    ]},
    {"sequence": "GCGUAGCAAUAUUACGUCUC", "values": [
      {"measurement": "self-splicing fitness (ln)", "setting": "37 °C", "value": "-2.6 ± 0.39"}
    ]},
    {"sequence": "GUGGAGCAAUAUUACGACGU", "values": [
      {"measurement": "self-splicing fitness (ln)", "setting": "30 °C", "value": "-1.15 ± 0.14"},
      {"measurement": "self-splicing fitness (ln)", "setting": "37 °C", "value": "0.0174 ± 0.16"}
    ]},
    {"sequence": "GCUAAGCAAUAUUACGCAGU", "values": [
      {"measurement": "self-splicing fitness (ln)", "setting": "30 °C", "value": "-3.5 ± 0.24"},
      {"measurement": "self-splicing fitness (ln)", "setting": "37 °C", "value": "-2.88 ± 0.31"}
    ]},
    {"sequence": "CUGGAGCAAUAUUACGUGGU", "values": [
      {"measurement": "self-splicing fitness (ln)", "setting": "30 °C", "value": "-3.53 ± 0.22"},
      {"measurement": "self-splicing fitness (ln)", "setting": "37 °C", "value": "-2.4 ± 0.35"}
    ]},
    {"sequence": "UAAGAGCAAUAUUACGUCGU", "values": [
      {"measurement": "self-splicing fitness (ln)", "setting": "30 °C", "value": "-4.06 ± 0.31"},
      {"measurement": "self-splicing fitness (ln)", "setting": "37 °C", "value": "-3.11 ± 0.43"}
    ]},
    {"sequence": "GCGCAGCAAUAUUACGAAUG", "values": [
      {"measurement": "self-splicing fitness (ln)", "setting": "30 °C", "value": "-1.52 ± 0.13"},
      {"measurement": "self-splicing fitness (ln)", "setting": "37 °C", "value": "-0.961 ± 0.14"}
    ]},
    {"sequence": "UUUGAGCAAUAUUACGCAAA", "values": [
      {"measurement": "self-splicing fitness (ln)", "setting": "30 °C", "value": "-2.8 ± 0.25"},
      {"measurement": "self-splicing fitness (ln)", "setting": "37 °C", "value": "-2.25 ± 0.21"}
    ]},
    {"sequence": "GAUAAGCAAUAUUACGGCAC", "values": [
      {"measurement": "self-splicing fitness (ln)", "setting": "30 °C", "value": "-0.252 ± 0.15"},
      {"measurement": "self-splicing fitness (ln)", "setting": "37 °C", "value": "-0.637 ± 0.17"}
    ]},
    {"sequence": "ACUCAGCAAUAUUACGGGCA", "values": [
      {"measurement": "self-splicing fitness (ln)", "setting": "30 °C", "value": "-0.259 ± 0.063"},
      {"measurement": "self-splicing fitness (ln)", "setting": "37 °C", "value": "0.203 ± 0.084"}
    ]},
    {"sequence": "ACCUAGCAAUAUUACGGCAU", "values": [
      {"measurement": "self-splicing fitness (ln)", "setting": "30 °C", "value": "-0.00618 ± 0.076"},
      {"measurement": "self-splicing fitness (ln)", "setting": "37 °C", "value": "0.451 ± 0.09"}
    ]},
    {"sequence": "AUCCAGCAAUAUUACGCACU", "values": [
      {"measurement": "self-splicing fitness (ln)", "setting": "30 °C", "value": "-0.149 ± 0.11"},
      {"measurement": "self-splicing fitness (ln)", "setting": "37 °C", "value": "0.144 ± 0.11"}
    ]},
    {"sequence": "AGAGAGCAAUAUUACGUCCG", "values": [
      {"measurement": "self-splicing fitness (ln)", "setting": "37 °C", "value": "-1.63 ± 0.33"}
    ]},
    {"sequence": "UAAGAGCAAUAUUACGCAUC", "values": [
      {"measurement": "self-splicing fitness (ln)", "setting": "30 °C", "value": "-4.23 ± 0.3"},
      {"measurement": "self-splicing fitness (ln)", "setting": "37 °C", "value": "-3.46 ± 0.37"}
    ]},
    {"sequence": "CCUAAGCAAUAUUACGCCUG", "values": [
      {"measurement": "self-splicing fitness (ln)", "setting": "30 °C", "value": "-3.62 ± 0.3"},
      {"measurement": "self-splicing fitness (ln)", "setting": "37 °C", "value": "-2.27 ± 0.3"}
    ]},
    {"sequence": "CUGUAGCAAUAUUACGAAUG", "values": [
      {"measurement": "self-splicing fitness (ln)", "setting": "30 °C", "value": "-1.12 ± 0.081"},
      {"measurement": "self-splicing fitness (ln)", "setting": "37 °C", "value": "0.429 ± 0.11"}
    ]},
    {"sequence": "UGGUAGCAAUAUUACGUACU", "values": [
      {"measurement": "self-splicing fitness (ln)", "setting": "30 °C", "value": "0.209 ± 0.34"}
    ]},
    {"sequence": "ACAUAGCAAUAUUACGAGAG", "values": [
      {"measurement": "self-splicing fitness (ln)", "setting": "30 °C", "value": "-3.57 ± 0.28"},
      {"measurement": "self-splicing fitness (ln)", "setting": "37 °C", "value": "-2.55 ± 0.18"}
    ]},
    {"sequence": "UACAAGCAAUAUUACGAACG", "values": [
      {"measurement": "self-splicing fitness (ln)", "setting": "30 °C", "value": "-0.239 ± 0.065"},
      {"measurement": "self-splicing fitness (ln)", "setting": "37 °C", "value": "-0.0708 ± 0.08"}
    ]},
    {"sequence": "GCUAAGCAAUAUUACGAGAA", "values": [
      {"measurement": "self-splicing fitness (ln)", "setting": "30 °C", "value": "-0.77 ± 0.47"},
      {"measurement": "self-splicing fitness (ln)", "setting": "37 °C", "value": "-1.64 ± 0.31"}
    ]},
    {"sequence": "UUUGAGCAAUAUUACGGGGU", "values": [
      {"measurement": "self-splicing fitness (ln)", "setting": "37 °C", "value": "-2.11 ± 0.26"}
    ]},
    {"sequence": "GAUUAGCAAUAUUACGUGCG", "values": [
      {"measurement": "self-splicing fitness (ln)", "setting": "30 °C", "value": "-2.8 ± 0.16"},
      {"measurement": "self-splicing fitness (ln)", "setting": "37 °C", "value": "0.0923 ± 0.12"}
    ]},
    {"sequence": "CGUUAGCAAUAUUACGAUGC", "values": [
      {"measurement": "self-splicing fitness (ln)", "setting": "30 °C", "value": "-0.888 ± 0.21"},
      {"measurement": "self-splicing fitness (ln)", "setting": "37 °C", "value": "-1.63 ± 0.31"}
    ]},
    {"sequence": "UGGGAGCAAUAUUACGACGU", "values": [
      {"measurement": "self-splicing fitness (ln)", "setting": "30 °C", "value": "-2.93 ± 0.22"},
      {"measurement": "self-splicing fitness (ln)", "setting": "37 °C", "value": "-2.37 ± 0.29"}
    ]},
    {"sequence": "AAAAAGCAAUAUUACGCACG", "values": [
      {"measurement": "self-splicing fitness (ln)", "setting": "30 °C", "value": "-1.4 ± 0.094"},
      {"measurement": "self-splicing fitness (ln)", "setting": "37 °C", "value": "-0.508 ± 0.14"}
    ]},
    {"sequence": "AAGCAGCAAUAUUACGAGAC", "values": [
      {"measurement": "self-splicing fitness (ln)", "setting": "37 °C", "value": "-0.225 ± 0.15"}
    ]},
    {"sequence": "CACAAGCAAUAUUACGAGAC", "values": [
      {"measurement": "self-splicing fitness (ln)", "setting": "30 °C", "value": "-3.08 ± 0.17"},
      {"measurement": "self-splicing fitness (ln)", "setting": "37 °C", "value": "-2.51 ± 0.17"}
    ]},
    {"sequence": "AGCCAGCAAUAUUACGCGGC", "values": [
      {"measurement": "self-splicing fitness (ln)", "setting": "30 °C", "value": "-3.54 ± 0.25"},
      {"measurement": "self-splicing fitness (ln)", "setting": "37 °C", "value": "-3.42 ± 0.31"}
    ]}
  ]
}
